± gives the uncertainty stated by the source.
Experiment: self-splicing fitness, log relative to wild type (ln ratio); higher = more splicing; Tetrahymena group I intron in knt gene, E. coli kanamycin selection, DiMSum; sequences stand for … in CUCUCU…GGAGGGAAAAGUUAUCAGGCAUGCACCUGGUAGCUAGUCUUUAAACCAAUAGAUUGCAUCGGUUUAAAAGGCAAGACCGUCAAAUUGCGGGAAAGGGGUCAACAGCCGUUCAGUACCAAGUCUCAGGGGAAACUUUGAGAUGGCCUUGCAAAGGGUAUGGUAAUAAGCUGACGGACAUGGUCCUAACCACGCAGCCAAGUCCUAAGUCAACAGAUCUUCUGUUGAUAUGGAUGCAGUUCACAGACUAAAUGUCGGUCGGGGAAGAUGUAUUCUUCUCAUAAGAUAUAGUCGGACCUCUCCUUAAUGGGAGCUAGCGGAUGAAGUGAUGCAACACUGGAGCCGCUGGGAACUAAUUUGUAUGCGAAAGUAUAUUGAUUAGUUUUGGAGUACUCGUGGUCG
How it was run: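 A randomised library covering all eight P1ex-region intron nucleotides was built with the intron in the knt kanamycin-resistance gene on pET-22b(+) and held in E. coli BL21(DE3). Cells were grown overnight at 37°C or 30°C on LB agar, with or without 25 μg/mL kanamycin, plus 100 μg/mL carbenicillin, 50 μM IPTG and 0.2% rhamnose, and pooled colonies were amplicon-sequenced on an Illumina HiSeq 2500. DiMSum fitness is the error-weighted combination of wild-type-normalised replicate fold changes, kanamycin versus none.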

Sequence | self-splicing fitness (ln) (30 °C) | self-splicing fitness (ln) (37 °C)
CGCCAGCAAUAUUACGGGGC | -4 ± 0.19 | -2.55 ± 0.16
GUGUAGCAAUAUUACGGGCG | -2.61 ± 0.27 | -1.21 ± 0.18
GUGGAGCAAUAUUACGAUCU | -2.68 ± 0.15 | -2.6 ± 0.22
GAAGAGCAAUAUUACGUGUC | -4.75 ± 0.46 | -2.79 ± 0.27
GGUAAGCAAUAUUACGGGAU | -2.82 ± 0.27 | -0.913 ± 0.21
CGGAAGCAAUAUUACGACCG | -3.04 ± 0.35 | -2.26 ± 0.45
CCCCAGCAAUAUUACGUCAU | -3.36 ± 0.1 | -3.02 ± 0.15
UAGGAGCAAUAUUACGAAUG | -1.64 ± 0.4 | -0.141 ± 0.49
UUUUAGCAAUAUUACGGUUU | -3.26 ± 0.47 | -0.0249 ± 0.25
CGAGAGCAAUAUUACGACCG | -3.71 ± 0.43 | -1.84 ± 0.33
AUCAAGCAAUAUUACGGUCA | -1.76 ± 0.14 | -1.28 ± 0.13
AAGCAGCAAUAUUACGCGGG | -1.43 ± 0.078 | -1.27 ± 0.1
CGCCAGCAAUAUUACGUCCA | – | -1.45 ± 0.39
UGACAGCAAUAUUACGUGCG | -1.12 ± 0.086 | -0.119 ± 0.097
CGCAAGCAAUAUUACGUCUC | -3.36 ± 0.18 | -1.49 ± 0.15
UGUUAGCAAUAUUACGUACA | -0.999 ± 0.11 | 0.16 ± 0.13
AACCAGCAAUAUUACGAGAC | -3.67 ± 0.39 | -1.71 ± 0.18
UACAAGCAAUAUUACGCGUU | -2.57 ± 0.096 | -1.71 ± 0.093
UCUCAGCAAUAUUACGAUGG | -0.935 ± 0.11 | -1 ± 0.14
AUGAAGCAAUAUUACGUACG | -0.461 ± 0.13 | -0.446 ± 0.093
CGAAAGCAAUAUUACGGCUG | 0.127 ± 0.11 | 0.181 ± 0.13
ACUUAGCAAUAUUACGUGGU | -3.62 ± 0.21 | -2.26 ± 0.17
UCUAAGCAAUAUUACGCACA | -2.26 ± 0.39 | -0.556 ± 0.47
AGAAAGCAAUAUUACGUUGA | -2.09 ± 0.14 | -1.23 ± 0.14
UCAUAGCAAUAUUACGCGUG | -2.85 ± 0.12 | -1.67 ± 0.11

Sequence | self-splicing fitness (ln) (30 °C) | self-splicing fitness (ln) (37 °C)
GGGAAGCAAUAUUACGUCGC | -1.83 ± 0.16 | -0.302 ± 0.17
CAGCAGCAAUAUUACGUGCA | -1.03 ± 0.061 | -0.673 ± 0.066
GCCGAGCAAUAUUACGCAUG | -3.99 ± 0.3 | -2.4 ± 0.22
UACGAGCAAUAUUACGGGAU | -2.49 ± 0.14 | -2.74 ± 0.27
GCUCAGCAAUAUUACGUAGA | -0.134 ± 0.073 | -0.191 ± 0.084
UGAAAGCAAUAUUACGAGUA | -1.45 ± 0.1 | -0.821 ± 0.092
AGAUAGCAAUAUUACGGAUC | -1.92 ± 0.21 | -0.641 ± 0.2
UCCGAGCAAUAUUACGGGUU | -3.41 ± 0.14 | -1.9 ± 0.15
CUAGAGCAAUAUUACGUUGU | -3.77 ± 0.2 | -2.5 ± 0.22
AUAUAGCAAUAUUACGACGA | -1.1 ± 0.22 | -0.564 ± 0.28
CUACAGCAAUAUUACGUUUU | -4.17 ± 0.18 | -3.26 ± 0.22
AUGAAGCAAUAUUACGGGUG | -1.81 ± 0.088 | -0.453 ± 0.098
AAUGAGCAAUAUUACGAAAA | -3.58 ± 0.4 | -2.1 ± 0.27
CUGCAGCAAUAUUACGACAA | – | -0.88 ± 0.19
UCCAAGCAAUAUUACGUGAG | -2.37 ± 0.098 | -0.996 ± 0.097
UAGUAGCAAUAUUACGAGGA | – | -1.81 ± 0.46
UGCUAGCAAUAUUACGUCUA | -1.21 ± 0.11 | -0.84 ± 0.1
AUAAAGCAAUAUUACGGAUG | -1.69 ± 0.072 | -0.844 ± 0.11
CGAUAGCAAUAUUACGCGGC | -2.93 ± 0.41 | –
UAAGAGCAAUAUUACGUCUG | -1.54 ± 0.093 | -0.00255 ± 0.11
GACUAGCAAUAUUACGUAGC | -2.47 ± 0.11 | -1.4 ± 0.1
GAAUAGCAAUAUUACGGCAC | -0.0381 ± 0.12 | -0.000648 ± 0.15
GAGAAGCAAUAUUACGUUAC | -3.39 ± 0.27 | -3.05 ± 0.35
CCAGAGCAAUAUUACGUGCC | -3.42 ± 0.38 | -2.76 ± 0.32
GGCCAGCAAUAUUACGCUGG | -3.98 ± 0.27 | -2.27 ± 0.24

Sequence | self-splicing fitness (ln) (30 °C) | self-splicing fitness (ln) (37 °C)
AUAGAGCAAUAUUACGAACC | -2.16 ± 0.14 | -1.02 ± 0.14
CCAGAGCAAUAUUACGAAGC | -3.1 ± 0.24 | -2.71 ± 0.27
AUCGAGCAAUAUUACGUACG | – | -2.07 ± 0.27
ACGUAGCAAUAUUACGAAGG | -2.19 ± 0.21 | -3.97 ± 0.46
UUGCAGCAAUAUUACGCGUG | -3.13 ± 0.14 | -2.7 ± 0.17
AGCCAGCAAUAUUACGAUAG | -4.04 ± 0.28 | -2.35 ± 0.24
CCUUAGCAAUAUUACGGCCU | – | -0.938 ± 0.34
UUAUAGCAAUAUUACGCUAG | -1.92 ± 0.2 | -0.0618 ± 0.24
CCUAAGCAAUAUUACGGCGA | -2.84 ± 0.31 | -1.95 ± 0.27
GCUCAGCAAUAUUACGGCCA | -1.77 ± 0.15 | -0.805 ± 0.16
CGAAAGCAAUAUUACGAGGU | – | -1.64 ± 0.3
UUGUAGCAAUAUUACGGUCU | -2.53 ± 0.21 | -1.53 ± 0.17
AAGCAGCAAUAUUACGCCAA | -2.31 ± 0.21 | -2.04 ± 0.21
GAUCAGCAAUAUUACGGGAU | -3.01 ± 0.12 | -1.18 ± 0.11
UUGGAGCAAUAUUACGGCAG | -1.6 ± 0.17 | -1.01 ± 0.22
CCUGAGCAAUAUUACGGUCA | -2.92 ± 0.24 | -2.46 ± 0.33
AAAAAGCAAUAUUACGUCCU | 0.148 ± 0.065 | 0.294 ± 0.079
AAAUAGCAAUAUUACGACUG | -0.98 ± 0.12 | -0.722 ± 0.18
ACUUAGCAAUAUUACGCCGU | -2.28 ± 0.24 | -1.11 ± 0.23
GUGCAGCAAUAUUACGUAGA | -2.02 ± 0.087 | -0.647 ± 0.11
CACUAGCAAUAUUACGUUUG | -2.29 ± 0.079 | -1.42 ± 0.11
CGGCAGCAAUAUUACGGUUU | -2.16 ± 0.077 | -0.769 ± 0.089
CGACAGCAAUAUUACGUGAC | -3.67 ± 0.24 | -2.61 ± 0.31
ACAGAGCAAUAUUACGAUAA | -4.19 ± 0.46 | -2.51 ± 0.36
GUCAAGCAAUAUUACGGAGC | -2.47 ± 0.46 | –

Sequence | self-splicing fitness (ln) (30 °C) | self-splicing fitness (ln) (37 °C)
CCUCAGCAAUAUUACGGCGA | -3.72 ± 0.31 | -2.79 ± 0.22
GCUGAGCAAUAUUACGACUG | -2.16 ± 0.35 | -0.83 ± 0.38
CGCCAGCAAUAUUACGUCAC | -3.7 ± 0.24 | -2 ± 0.24
AUGCAGCAAUAUUACGCUGU | -3.46 ± 0.21 | -2.63 ± 0.45
CCAGAGCAAUAUUACGCCUU | -3.57 ± 0.25 | -2.37 ± 0.25
UCGCAGCAAUAUUACGGAGG | -3.71 ± 0.18 | -2.05 ± 0.15
GCAAAGCAAUAUUACGUUCA | -0.597 ± 0.064 | -0.534 ± 0.077
GCUAAGCAAUAUUACGAAUA | -2.16 ± 0.21 | -1.73 ± 0.24
GAAAAGCAAUAUUACGGCCA | -1.03 ± 0.16 | 0.81 ± 0.21
GAAUAGCAAUAUUACGCCCC | -0.0149 ± 0.39 | -0.245 ± 0.42
AGUGAGCAAUAUUACGCGAA | -2.36 ± 0.32 | -1.56 ± 0.29
CCAAAGCAAUAUUACGUAGG | -3.85 ± 0.18 | -1.66 ± 0.12
ACGUAGCAAUAUUACGGACG | -1.88 ± 0.17 | -0.579 ± 0.13
ACGGAGCAAUAUUACGUGUA | -3.72 ± 0.29 | -3.03 ± 0.23
AACUAGCAAUAUUACGGUUC | -4.49 ± 0.24 | -2.94 ± 0.21
UGUCAGCAAUAUUACGCUGA | -0.7 ± 0.23 | -0.59 ± 0.27
GCAAAGCAAUAUUACGGUAG | -2.68 ± 0.14 | -3.34 ± 0.23
CCCUAGCAAUAUUACGCUAG | -4.18 ± 0.34 | -2.47 ± 0.28
CGUUAGCAAUAUUACGCUGG | -1.45 ± 0.28 | -1.83 ± 0.31
GAGGAGCAAUAUUACGCUCA | -0.973 ± 0.24 | -0.181 ± 0.27
ACCGAGCAAUAUUACGGAGU | -3.72 ± 0.25 | -2.11 ± 0.18
CUCUAGCAAUAUUACGCUAC | -3.65 ± 0.47 | -1.14 ± 0.37
GAAGAGCAAUAUUACGGUGC | – | -2.41 ± 0.21

Reference: the supplement of paper PMC7877785
